From patent publication US20240247080A1, “GLP1/GIP/NPY2 RECEPTOR TRIPLE AGONISTS” (Boehringer Ingelheim International GmbH, priority 2022, published 2024)
Starred links: 1 amine or outer side, 2 acyl side, 3 side chain; linkers in the order of their positions; H or OH if unused. Non-standard residues stand in square brackets, D forms with d. Groups on a side chain read outwards from the residue. No end group written: not given here. *: point of attachment. C20 diacid = O=C(O)CCCCCCCCCCCCCCCCCCC(=O)*; C18 diacid = O=C(O)CCCCCCCCCCCCCCCCC(=O)*; γGlu = O=C(O)[C@H](CCC(=O)[*:2])N[*:1]; εLys = N[C@@H](CCCCN[*:1])C(=O)[*:2]; AEEA = NCCOCCOCC(=O)O; Aib = CC(C)(N)C(=O)O

Experiments:
Assay in all cases: cell-based or functional assay
[1] = target: human GLP-1 receptor (human, UniProt P43220 24-463)
[2] = target: T1, human GIP receptor (human, UniProt P48546 22-466)
T1 sequence (looked up): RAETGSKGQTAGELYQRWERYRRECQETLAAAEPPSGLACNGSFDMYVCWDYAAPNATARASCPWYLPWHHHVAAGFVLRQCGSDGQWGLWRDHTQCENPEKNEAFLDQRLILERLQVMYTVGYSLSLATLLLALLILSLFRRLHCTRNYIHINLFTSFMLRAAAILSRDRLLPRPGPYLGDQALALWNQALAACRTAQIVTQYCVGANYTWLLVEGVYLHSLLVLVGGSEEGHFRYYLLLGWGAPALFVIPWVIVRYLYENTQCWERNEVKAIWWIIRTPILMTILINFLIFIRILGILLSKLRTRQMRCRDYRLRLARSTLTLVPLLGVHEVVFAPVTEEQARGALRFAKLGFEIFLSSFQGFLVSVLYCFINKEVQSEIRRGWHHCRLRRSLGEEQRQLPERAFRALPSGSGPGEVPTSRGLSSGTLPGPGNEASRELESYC

[3] = target: T2, human neuropeptide Y2 (NPY2) receptor (human, UniProt P49146 1-381)
T2 sequence (looked up): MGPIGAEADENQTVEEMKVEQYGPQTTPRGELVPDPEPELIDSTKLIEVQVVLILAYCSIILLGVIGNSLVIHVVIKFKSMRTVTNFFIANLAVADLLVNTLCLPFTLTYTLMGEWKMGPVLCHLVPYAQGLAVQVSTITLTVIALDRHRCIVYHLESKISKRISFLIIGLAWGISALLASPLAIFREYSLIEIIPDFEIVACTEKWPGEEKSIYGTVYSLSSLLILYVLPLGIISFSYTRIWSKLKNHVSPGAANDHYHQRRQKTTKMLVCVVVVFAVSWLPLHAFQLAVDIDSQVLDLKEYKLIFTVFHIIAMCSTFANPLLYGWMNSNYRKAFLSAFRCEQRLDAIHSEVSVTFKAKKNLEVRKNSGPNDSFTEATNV

| Binder | EC50, CreLuc assay, 0.5% hP [1] [nM] | EC50, CreLuc assay, 100% hP [1] [nM] | EC50, CreLuc assay, 0.5% hP [2] [nM] | EC50, CreLuc assay, 100% hP [2] [nM] | EC50, CreLuc assay, 0.5% hP [3] [nM] | EC50, CreLuc assay, 100% hP [3] [nM] |
| --- | --- | --- | --- | --- | --- | --- |
| Y[Aib]EGTFTSDYSI[Aib]LEKQAQ[Aib]AFVQWLIK([εLys-γGlu-γGlu-γGlu-γGlu-γGlu-C20 diacid])GGPEEPASLRHYYNWLTRQRY-NH2 (also: TFA salt) [Compound 67] | 0.38 | 27.4 | 0.29 | 6.18 | 13.7 | 78.9 |
| Y[Aib]EGTFTSDYSI[Aib]LEKQAQ[Aib]AFVEWLIKGGPESPASLRHYYNWLTRQRY-NH2 (not fully specified (residue 28); also: TFA salt) [Compound 64] | 0.29 | 11.2 | 0.18 | 2.37 | 17 | 95.3 |
| YXEGTFTSDYSIXLEKQAQXAFVEWLIKGGPSSGIELRHFLNHLTRQRY (Aib at 2, 13, 20; K28 side chain: C20DA-gGlu-gGlu-gGlu-gGlu-gGlu-gGlu-eLys; C-terminal NH2) [Compound 2] | 0.1 | 1.39 | 0.35 | 1.56 | > 100 | 564 |
| Y[Aib]EGTFTSDYSI[Aib]LEKQAQ[Aib]AFVQWLIK([εLys-γGlu-γGlu-γGlu-γGlu-γGlu-C20 diacid])GGPESGASLRHYYNWLTRQRY-NH2 (also: TFA salt) [Compound 61] | 0.11 | 3.95 | 0.36 | 0.56 | 6.25 | 37.6 |
| Y[Aib]EGTFTSDYSI[Aib]LEKQAQ[Aib]AFVQWLIK([εLys-γGlu-γGlu-γGlu-γGlu-γGlu-C18 diacid])GGPESGASLRHYYNWLTRQRY-NH2 (also: TFA salt) [Compound 60] | 0.08 | 1.69 | 0.33 | 0.35 | 7.43 | 23.1 |
| Y[Aib]EGTFTSDYSI[Aib]LEKQAQ[Aib]EFVEWLIK([AEEA-AEEA-γGlu-γGlu-γGlu-γGlu-C18 diacid])GGPSSPASLRHYYNWLTRQRY-NH2 (also: TFA salt) [Compound 56] | 0.25 | 8.97 | 0.27 | 1.02 | 27.2 | 48.8 |
| Y[Aib]EGTFTSDYSI[Aib]LEKQAQ[Aib]AFVQWLIK([εLys-Glu-Glu-Glu-Glu-Glu-C18 diacid])GGPESGASLRHYYNWLTRQRY-NH2 (also: TFA salt) [Compound 63] | 0.08 | 3 | 0.13 | 0.89 | 15.2 | 74.3 |
| Y[Aib]EGTFTSDYSI[Aib]LEKQAQ[Aib]AFVQWLIK([AEEA-AEEA-γGlu-γGlu-γGlu-γGlu-C18 diacid])GGPEEPASLRHYYNWLTRQRY-NH2 (also: TFA salt) [Compound 57] | 0.14 | 6.45 | 0.18 | 1.17 | 9.74 | 33.6 |
| YXEGTFTSDYSIXLEKQAQXAFVEWLIKGGPRYYASLRHYYNWLTRQRY (Aib at 2, 13, 20; K28 side chain: C20DA-gGlu-gGlu-gGlu-gGlu-gGlu-gGlu-eLys; C-terminal NH2) [Compound 62] | 0.78 | 9.23 | 0.48 | 5.35 | 13.6 | 40.5 |
| YXEGTFTSDYSIXLEEEAQXAFVEWLIKGGPSSGASLRHYYNWLTRQRY (Aib at 2, 13, 20; K28 side chain: C20DA-gGlu-gGlu-gGlu-gGlu-gGlu-gGlu-eLys; C-terminal NH2) [Compound 66] | 0.24 | 11.6 | 0.64 | 3.06 | 18.8 | 85.6 |
| Y[Aib]EGTFTSDYSI[Aib]LEKQAQ[Aib]AFVQWLIKGGPESGASLRHYYNWLTRQRY-NH2 (not fully specified (residue 28); also: TFA salt) [Compound 55] | 0.09 | 4.17 | 0.12 | 0.82 | 16 | 53.4 |
| Y[Aib]EGTFTSDYSI[Aib]LEKQAQ[Aib]AFVQWLIK([AEEA-AEEA-γGlu-γGlu-γGlu-γGlu-C18 diacid])GGPESGASLRHYYNWLTRQRY-NH2 (also: TFA salt) [Compound 58] | 0.05 | 2 | 0.24 | 0.31 | 10.2 | 22.8 |
| Y[Aib]EGTFTSDYSI[Aib]LEKQAQ[Aib]AFVEWLIK([γGlu-γGlu-γGlu-γGlu-γGlu-γGlu-C20 diacid])GGGSEYVSLRHYYNWLTRQRY-NH2 (also: TFA salt) [Compound 65] | 2.65 | 49.3 | 1.03 | 15.7 | 10.9 | 24.2 |
| Y[Aib]EGTFTSDYSI[Aib]LEKQAE[Aib]AFVQWLIKGGPSEPASLRHYYNWLTRQRY-NH2 (not fully specified (residue 28); also: TFA salt) [Compound 54] | 0.22 | 7.71 | 0.24 | 1.4 | 14 | 60.1 |
| Y[Aib]EGTFTSDYSI[Aib]LEEEAQ[Aib]AFVQWLIK([εLys-εLys-γGlu-γGlu-γGlu-γGlu-γGlu-C20 diacid])GGPSSGASLRHYYNWLTRQRY-NH2 (also: TFA salt) [Compound 7] | 0.13 | 1.58 | 0.23 | 0.63 | 16.9 | 36.7 |
| Y[Aib]EGTFTSDYSI[Aib]LEKQAQ[Aib]AFVQWLIKGGPSYYASLRHYYNWLTRQRY-NH2 (not fully specified (residue 28); also: TFA salt) [Compound 59] | 0.39 | 8.81 | 0.49 | 5.75 | 10.8 | 29.9 |
